Data as given in FireProtDB (doi:10.1021/bi00177a023).

Details: Aspergillus oryzae (strain ATCC 42149 / RIB 40), Thermal, DSC, NaCl 80 mM, reversible: yes, whole UniProt chain shown
[1] = pH 6, Sodium cacodylate-HCl 10 mM
[2] = pH 6.5, Sodium cacodylate-HCl 10 mM
[3] = pH 7, Sodium cacodylate-HCl 10 mM
[4] = pH 8.6, Sodium borate-HCl 10 mM

B1: Guanyl-specific ribonuclease T1 wild type, P00651 (protein)
chain: MMYSKLLTLTTLLLPTALALPSLVERACDYTCGSNCYSSSDVSTAQAAGYQLHEDGETVGSNSYPHKYNNYEGFDFSVSSPYYEWPILSSGDVYSGGSPGADRVVFNENNQLAGVITHTGASGNNFVECT
Q: For B1, which Tm (pH 5, Sodium acetate 10 mM) is on record?
A: Its Tm is 58.8 °C.

Q: And the “heat capacity change of unfolding” value (pH 5, Sodium acetate 10 mM)?
A: Its value is 0.89 kcal/mol/K.

Q: What about the “unfolding enthalpy (calorimetric)” value (pH 5, Sodium acetate 10 mM) of the same protein?
A: Its value is 112 kcal/mol.

Q: What about the “unfolding enthalpy (van 't Hoff)” value (pH 5, Sodium acetate 10 mM) of the same protein?
A: The value was 115 kcal/mol.

Q: What about the Tm [1] of the same protein?
A: The Tm was 54.1 °C.

Q: What about the “heat capacity change of unfolding” value [1] of the same protein?
A: Its value is 1.28 kcal/mol/K.

Q: What about the “unfolding enthalpy (calorimetric)” value [1] of the same protein?
A: Its value is 111 kcal/mol.

Q: And the “unfolding enthalpy (van 't Hoff)” value [1]?
A: The value was 110 kcal/mol.

Q: What about the Tm [2] of the same protein?
A: The Tm was 50.9 °C.

Q: What about the “heat capacity change of unfolding” value [2] of the same protein?
A: The value was 1.23 kcal/mol/K.

Q: And the “unfolding enthalpy (calorimetric)” value [2]?
A: Its value is 106 kcal/mol.

Q: And the “unfolding enthalpy (van 't Hoff)” value [2]?
A: The value was 112 kcal/mol.

Q: What about the Tm [3] of the same protein?
A: Its Tm is 48.8 °C.

Q: What about the “heat capacity change of unfolding” value [3] of the same protein?
A: The value was 1.21 kcal/mol/K.

Q: And the “unfolding enthalpy (calorimetric)” value [3]?
A: Its value is 108 kcal/mol.

Q: What about the “unfolding enthalpy (van 't Hoff)” value [3] of the same protein?
A: The value was 108 kcal/mol.

Q: And the Tm [4]?
A: Its Tm is 43.4 °C.

Q: What about the “heat capacity change of unfolding” value [4] of the same protein?
A: Its value is 1.2 kcal/mol/K.

Q: What about the “unfolding enthalpy (calorimetric)” value [4] of the same protein?
A: Its value is 94.7 kcal/mol.

Q: And the “unfolding enthalpy (van 't Hoff)” value [4]?
A: Its value is 109 kcal/mol.

Q: What about the Tm (pH 9.7, glycine-NaOH 10 mM) of the same protein?
A: Its Tm is 40.7 °C.

Q: And the “heat capacity change of unfolding” value (pH 9.7, glycine-NaOH 10 mM)?
A: Its value is 1.22 kcal/mol/K.

Q: What about the “unfolding enthalpy (calorimetric)” value (pH 9.7, glycine-NaOH 10 mM) of the same protein?
A: Its value is 79.7 kcal/mol.

Q: And the “unfolding enthalpy (van 't Hoff)” value (pH 9.7, glycine-NaOH 10 mM)?
A: The value was 102 kcal/mol.
